# Laboratory results published in the supplement of paper PMC11246515.
# ± gives the standard deviation of the averaged measurements.
# Experiment: total protein half-life in vivo (active degradation + dilution); higher = more stable protein
# [1] = E. coli NCM3722 delta-clpP delta-lon delta-hslV, growth: N-lim chemostat, doubling time 6 h
# [2] = E. coli NCM3722 delta-clpP, growth: N-lim chemostat, doubling time 6 h
# [3] = E. coli NCM3722 delta-hslV, growth: N-lim chemostat, doubling time 6 h
# [4] = E. coli NCM3722 delta-lon, growth: N-lim chemostat, doubling time 6 h
# [5] = E. coli NCM3722 delta-smpB, growth: N-lim chemostat, doubling time 6 h
# [6] = wild type E. coli NCM3722, growth: C-lim chemostat, doubling time 3 h
# [7] = wild type E. coli NCM3722, growth: C-lim chemostat, doubling time 6 h
# [8] = wild type E. coli NCM3722, growth: C-lim chemostat, doubling time 12 h
# [9] = wild type E. coli NCM3722, growth: N-lim chemostat, doubling time 6 h
# [10] = wild type E. coli NCM3722, growth: N-lim chemostat, doubling time 12 h
# [11] = wild type E. coli NCM3722, growth: P-lim chemostat, doubling time 6 h
# [12] = wild type E. coli NCM3722, growth: P-lim chemostat, doubling time 12 h
Sequence,total protein half-life in vivo [1],total protein half-life in vivo [2],total protein half-life in vivo [3],total protein half-life in vivo [4],total protein half-life in vivo [5],total protein half-life in vivo [6],total protein half-life in vivo [7],total protein half-life in vivo [8],total protein half-life in vivo [9],total protein half-life in vivo [10],total protein half-life in vivo [11],total protein half-life in vivo [12]
MSTEIKTQVVVLGAGPAGYSAAFRCADLGLETVIVERYNTLGGVCLNVGCIPSKALLHVAKVIEEAKALAEHGIVFGEPKTDIDKIRTWKEKVINQLTGGLAGMAKGRKVKVVNGLGKFTGANTLEVEGENGKTVINFDNAIIAAGSRPIQLPFIPHEDPRIWDSTDALELKEVPERLLVMGGGIIGLEMGTVYHALGSQIDVVEMFDQVIPAADKDIVKVFTKRISKKFNLMLETKVTAVEAKEDGIYVTMEGKKAPAEPQRYDAVLVAIGRVPNGKNLDAGKAGVEVDDRGFIRVDKQLRTNVPHIFAIGDIVGQPMLAHKGVHEGHVAAEVIAGKKHYFDPKVIPSIAYTEPEVAWVGLTEKEAKEKGISYETATFPWAASGRAIASDCADGMTKLIFDKESHRVIGGAIVGTNGGELLGEIGLAIEMGCDAEDIALTIHAHPTLHESVGLAAEVFEGSITDLPNPKAKKK [P0A9P0],6.89 ± 0.093 h,6.28 ± 0.24 h,6.35 ± 0.43 h,6.43 ± 0.36 h,6.01 ± 0.24 h,3.11 ± 0.081 h,6.68 ± 0.33 h,12.6 ± 1.1 h,6.23 ± 0.55 h,13.1 ± 0.57 h,6.11 ± 0.12 h,14.4 ± 0.26 h
MSTEKEKMIAGELYRSADETLSRDRLRARQLIHRYNHSLAEEHTLRQQILADLFGQVTEAYIEPTFRCDYGYNIFLGNNFFANFDCVMLDVCPIRIGDNCMLAPGVHIYTATHPIDPVARNSGAELGKPVTIGNNVWIGGRAVINPGVTIGDNVVVASGAVVTKDVPDNVVVGGNPARIIKKL,3.81 h,> 8 h,1.77 h,,,3.24 ± 0.56 h,3.82 ± 0.11 h,5.15 ± 2.1 h,,,> 8 h,7.59 ± 1.4 h
MSTKPLFLLRKAKKSSGEPDVVLWASNDFESTCATLDYLIVKSGKKLSSYFKAVATNFPVVNDLPAEGEIDFTWSERYQLSKDSMTWELKPGAAPDNAHYQGNTNVNGEDMTEIEENMLLPISGQELPIRWLAQHGSEKPVTHVSRDGLQALHIARAEELPAVTALAVSHKTSLLDPLEIRELHKLVRDTDKVFPNPGNSNLGLITAFFEAYLNADYTDRGLLTKEWMKGNRVSHITRTASGANAGGGNLTDRGEGFVHDLTSLARDVATGVLARSMDLDIYNLHPAHAKRIEEIIAENKPPFSVFRDKFITMPGGLDYSRAIVVASVKEAPIGIEVIPAHVTEYLNKVLTETDHANPDPEIVDIACGRSSAPMPQRVTEEGKQDDEEKPQPSGTTAVEQGEAETMEPDATEHHQDTQPLDAQSQVNSVDAKYQELRAELHEARKNIPSKNPVDDDKLLAASRGEFVDGISDPNDPKWVKGIQTRDCVYQNQPETEKTSPDMNQPEPVVQQEPEIACNACGQTGGDNCPDCGAVMGDATYQETFDEESQVEAKENDPEEMEGAEHPHNENAGSDPHRDCSDETGEVADPVIVEDIEPGIYYGISNENYHAGPGISKSQLDDIADTPALYLWRKNAPVDTTKTKTLDLGTAFHCRVLEPEEFSNRFIVAPEFNRRTNAGKEEEKAFLMECASTGKTVITAEEGRKIELMYQSVMALPLGQWLVESAGHAESSIYWEDPETGILCRCRPDKIIPEFHWIMDVKTTADIQRFKTAYYDYRYHVQDAFYSDGYEAQFGVQPTFVFLVASTTIECGRYPVEIFMMGEEAKLAGQQEYHRNLRTLSDCLNTDEWPAIKTLSLPRWAKEYAND,6.07 ± 0.4 h,3.46 h,,,,3.65 ± 0.15 h,4.2 ± 0.11 h,5.8 ± 1.9 h,,> 16 h,2.43 h,4.82 h
MSTLEPAAQSKPPGGFKLWLSQLQMKHGRKLVIALPYIWLILLFLLPFLIVFKISLAEMARAIPPYTELMEWADGQLSITLNLGNFLQLTDDPLYFDAYLQSLQVAAISTFCCLLIGYPLAWAVAHSKPSTRNILLLLVILPSWTSFLIRVYAWMGILKNNGVLNNFLLWLGVIDQPLTILHTNLAVYIGIVYAYVPFMVLPIYTALIRIDYSLVEAALDLGARPLKTFFTVIVPLTKGGIIAGSMLVFIPAVGEFVIPELLGGPDSIMIGRVLWQEFFNNRDWPVASAVAIIMLLLLIVPIMWFHKHQQKSVGEHG,6.86 h,4.75 ± 1.4 h,,,5 h,,5.16 ± 0.14 h,12 ± 1.7 h,5.38 h,10.6 ± 0.24 h,6.7 h,13.2 ± 1.9 h
MSTLGHQYDNSLVSNAFGFLRLPMNFQPYDSDADWVITGVPFDMATSGRAGGRHGPAAIRQVSTNLAWEHNRFPWNFDMRERLNVVDCGDLVYAFGDAREMSEKLQAHAEKLLAAGKRMLSFGGDHFVTLPLLRAHAKHFGKMALVHFDAHTDTYANGCEFDHGTMFYTAPKEGLIDPNHSVQIGIRTEFDKDNGFTVLDACQVNDRSVDDVIAQVKQIVGDMPVYLTFDIDCLDPAFAPGTGTPVIGGLTSDRAIKLVRGLKDLNIVGMDVVEVAPAYDQSEITALAAATLALEMLYIQAAKKGE,6.58 ± 1 h,5.85 ± 0.27 h,5.33 ± 0.076 h,7.38 ± 0.48 h,5.82 ± 0.58 h,2.9 ± 0.36 h,6.205 ± 0.019 h,11.8 ± 0.43 h,6.72 ± 0.96 h,11.9 h,6.0955 ± 0.0043 h,12.2 ± 1.3 h
MSTLRLLISDSYDPWFNLAVEECIFRQMPATQRVLFLWRNADTVVIGRAQNPWKECNTRRMEEDNVRLARRSSGGGAVFHDLGNTCFTFMAGKPEYDKTISTSIVLNALNALGVSAEASGRNDLVVKTVEGDRKVSGSAYRETKDRGFHHGTLLLNADLSRLANYLNPDKKKLAAKGITSVRSRVTNLTELLPGITHEQVCEAITEAFFAHYGERVEAEIISPNKTPDLPNFAETFARQSSWEWNFGQAPAFSHLLDERFTWGGVELHFDVEKGHITRAQVFTDSLNPAPLEALAGRLQGCLYRADMLQQECEALLVDFPEQEKELRELSAWMAGAVR,4.61 ± 0.64 h,,4.05 ± 0.39 h,5.74 ± 1.3 h,4.227 ± 0.0072 h,2.93 ± 0.24 h,5.88 ± 0.59 h,11 ± 0.56 h,4.8 ± 0.4 h,7.13 ± 0.78 h,5.78 ± 0.2 h,11.9 ± 0.67 h
